# Laboratory results taken from patent US20110039331A1 (OSAKA UNIVERSITY, published 2011).
# B1: P20.1 antibody (monoclonal antibody produced by mouse-mouse hybridoma P20.1, FERM BP-11061) (antibody, mouse IgG1, V domains shown)
# VH: QIQLVQSGPEVQKPGETVRISCKASGYTFTTAGMQWVQKMPGKSLKWIGWINTRSGVPKYAEDFKGRFAFSLETSASIAYLHINNLKNEDTATYFCAREGPGFVYWGQGTLVTVSA
# VL: QTVVTQESALTTSPGETVTLTCRSSTGVVTTSNYANWVQEKPDHLFTGLIVGTNNRVPGVPPRFSGSLIGDKAALTITGAQTEDEAIYFCALWYSNHWVFGGGTKLTVL
# notes: Biotinylated in the sandwich ELISA of 7-2-1 and coupled to CNBr-Sepharose in the pull-down and purification experiments; also called P20.1 Ab; monoclonal P20.1 antibody
# B2: Fab fragment of the P20.1 antibody (Fab, V domains shown)
# VH: B1 VH
# VL: B1 VL
# notes: Made by papain digestion of the purified IgG1/lambda antibody; also called P20.1 antibody Fab fragment
# Assays:
# [1] = target: Flag-tagged Fn (Flag-Fn) (human) (UniProt P02751); assay: SPR (Biacore), Flag-Fn on the chip, M2 antibody flowed over
# Sequence of Flag-tagged Fn (Flag-Fn) (human) (P02751 other isoform, or with tags, fused parts or gaps limits assumed): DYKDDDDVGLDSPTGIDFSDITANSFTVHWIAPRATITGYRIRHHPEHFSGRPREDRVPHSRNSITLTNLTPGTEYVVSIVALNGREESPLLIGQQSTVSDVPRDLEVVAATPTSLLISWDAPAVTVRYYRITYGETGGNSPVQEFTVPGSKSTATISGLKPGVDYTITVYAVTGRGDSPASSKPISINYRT
# [2] = target: T1, hGH-BAS-γC-P4×3, human growth factor/human fibrinogen γ chain C domain fusion protein with 3 repeats of the … (human, UniProt P01241 27-217; P02679 169-437); assay: SPR (Biacore X-100), P20.1 antibody-immobilized chip, fusion protein flowed over
# T1 construct: also called P4×3-tagged hGH fusion protein
# [3] = target: hGH-BAS-γC-P4×5, human growth factor/human fibrinogen γ chain C domain fusion protein with 5 repeats of the … (human, UniProt P01241 27-217; P02679 169-437); assay: as above
# [4] = target: T2, tag peptide/F-spondin fusion protein (P4×3, TEV protease cleavage sequence, N-terminal 146-amino-acid domain …); assay: affinity purification from culture supernatant on P20.1 antibody-Sepharose, elution with 40% propylene glycol and 1 M NaCl, SDS gel electrophoresis
# T2 construct: Secreted from HEK293T cells; also called recombinant F-spondin protein
# T2 chain: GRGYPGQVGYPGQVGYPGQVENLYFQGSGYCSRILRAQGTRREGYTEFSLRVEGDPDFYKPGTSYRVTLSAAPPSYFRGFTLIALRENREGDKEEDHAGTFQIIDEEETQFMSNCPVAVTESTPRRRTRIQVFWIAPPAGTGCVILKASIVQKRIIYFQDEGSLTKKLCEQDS
# Method: Washing with TBS and eluting with a buffer solution containing 40% propylene glycol and 1 M NaCl were performed, and the resulting effluent was subjected to SDS gel electrophoresis.
# [5] = target: T3, P4(C8) peptide (8-residue peptide PRGYPGQV) (human); assay: X-ray crystallography of the complex
# T3 peptide: PRGYPGQV
# [6] = target: P20.1 antibody (monoclonal antibody produced by mouse-mouse hybridoma P20.1, FERM BP-11061); assay: competitive dissociation ELISA: free peptide added for 30 minutes to P20.1 antibody bound on coated P4(20)-Fn
# [7] = target: P20.1 antibody (monoclonal antibody produced by mouse-mouse hybridoma P20.1, FERM BP-11061); assay: competitive elution of the P4×3-tagged hGH fusion protein from P20.1 antibody-Sepharose, SDS gel
# [8] = target: P20.1 antibody (monoclonal antibody produced by mouse-mouse hybridoma P20.1, FERM BP-11061); assay: competitive dissociation ELISA: P20.1 antibody bound to coated P4(20)-Fn, free P4(C8) peptide added at the final washing step for 30 minutes; displaced partner P4(20)-Fn
molecule,measurement,setting,value
commercially available anti-Flag antibody M2,Kd,[1],2.7 nM
same,koff,[1],0.000395 s⁻¹
same,kon,[1],146000 M⁻¹ s⁻¹
B1,fold of the maximum binding capacity against the fusion protein with one repeat,[2],≥ 4 fold
same,fold of the maximum binding capacity against the fusion protein with one repeat,[3],≥ 4 fold
same,binding result,[4],binds
B2,binding result,[5],binds
PRGYPGQV [P4(C8) peptide (8-residue peptide PRGYPGQV)],peptide concentration at which almost complete dissociation was confirmed,[6],0.1 mg/mL
same,peptide concentration that elutes the tagged fusion protein,[7],> 0.1 mg/mL
same,IC50 (read off the curve),[8],10 µg/mL
